Laboratory results reported in paper PMC7935953, “Insights on autophagosome–lysosome tethering from structural and biochemical characterization of human autophagy factor EPG5” (Communications Biology, 2021).

What was measured:
Assay in all cases: pull-down; GST pull-down: purified GST-LC3A/B/C or GST-GABARAP/L1/L2 bait (200–240 µg) on glutathione resin, purified His-FLAG-hEPG5 or mutant (25–30 µg) as prey; 50 mM Tris pH 8.0, 150 mM NaCl, 5% glycerol, 0.01% Tween20, 0.5 mM DTT, 4 °C; anti-FLAG fluorescence western blot
GST-GABARAPL1 (human) = GST-GABARAPL1 (human) (UniProt Q9H0R8)
Sequence of GST-GABARAPL1 (human) (Q9H0R8 whole entry): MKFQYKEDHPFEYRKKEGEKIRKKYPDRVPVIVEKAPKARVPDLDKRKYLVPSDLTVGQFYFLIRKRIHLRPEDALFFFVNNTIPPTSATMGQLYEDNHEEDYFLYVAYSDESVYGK

GST-GABARAPL2 (human) = GST-GABARAPL2 (human) (UniProt P60520)
Sequence of GST-GABARAPL2 (human) (P60520 whole entry): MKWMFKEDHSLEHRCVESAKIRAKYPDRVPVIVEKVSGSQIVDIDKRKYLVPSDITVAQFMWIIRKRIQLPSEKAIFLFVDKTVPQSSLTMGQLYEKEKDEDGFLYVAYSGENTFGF

GST-GABARAP (human) = GST-GABARAP (human) (UniProt O95166)
Sequence of GST-GABARAP (human) (O95166 whole entry): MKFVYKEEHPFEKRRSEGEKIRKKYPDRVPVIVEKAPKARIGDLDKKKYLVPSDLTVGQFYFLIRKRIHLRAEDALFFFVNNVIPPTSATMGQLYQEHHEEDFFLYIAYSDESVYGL

Measured: fold more hEPG5 precipitated than by the LC3 subfamily

His-FLAG-hEPG5 (human EPG5, full length, wild type), Q9HCE0 1-2579
2.5 times: all assays above
